Reference: US20240294593A1
Substitutions are numbered along the chain they refer to.

Experiments:
[1] = biological target: human PD-1-His (human) (UniProt Q15116); assay: Octet
[2] = biological target: human PD-1-His (human) (UniProt Q15116); assay: Octet; in the context of PD-1-targeted IL-15/Rα-Fc fusion; reference mAb C H1L1
[3] = biological target: human PD-1-His (human) (UniProt Q15116); assay: Octet tandem epitope binning: PD-1-His on HIS1K biosensor, first dip PDL1-Fc (row), second dip 1C11-based mAb; normalized to HBS-EP first dip
[4] = biological target: human PD-1-His (human) (UniProt Q15116); assay: Octet tandem epitope binning: PD-1-His on HIS1K biosensor, first dip chmAb A (row), second dip 1C11-based mAb; normalized to HBS-EP first dip
[5] = biological target: human PD-1-His (human) (UniProt Q15116); assay: Octet tandem epitope binning: PD-1-His on HIS1K biosensor, first dip chmAb B (row), second dip 1C11-based mAb; normalized to HBS-EP first dip
[6] = biological target: human PD-1-His (human) (UniProt Q15116); assay: Octet tandem epitope binning: PD-1-His on HIS1K biosensor, first dip XENP16432 (row), second dip 1C11-based mAb; normalized to HBS-EP first dip
[7] = biological target: human PD-1-His (human) (UniProt Q15116); assay: Octet tandem epitope binning: PD-1-His on HIS1K biosensor, first dip XENP21461 (row), second dip 1C11-based mAb; normalized to HBS-EP first dip
[8] = biological target: human PD-1-His (human) (UniProt Q15116); assay: Octet tandem epitope binning: PD-1-His on HIS1K biosensor, first dip 1C11-based mAb (row), second dip 1C11-based mAb; normalized to HBS-EP first dip
[9] = biological target: human PD-1-His (human) (UniProt Q15116); assay: Octet tandem epitope binning: PD-1-His on HIS1K biosensor, first dip HBS-EP buffer (row; the reference of the normalization), second dip 1C11-based mAb

Chain of human PD-1-His (human) (Q15116 25-167 limits assumed): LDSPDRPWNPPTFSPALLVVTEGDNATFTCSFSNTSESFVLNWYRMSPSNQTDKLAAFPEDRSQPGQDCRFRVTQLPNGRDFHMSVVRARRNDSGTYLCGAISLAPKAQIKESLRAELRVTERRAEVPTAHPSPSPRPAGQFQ

B1: mAb C H1.19_L1.1 (in the context of PD-1-targeted IL-15/Rα-Fc fusion) (Fc fusion, part only; not given: IL-15/Rα-Fc chain, constant regions, not shown: another chain or arm of the molecule; a dimerising Fc or GST; small tags and cut ends)
VH: EVQLVESGGGLVQPGGSLRLSCAASGFTFSSLGMHWVRQAPGKGLEWVSYISSGSSIIYYADSVKGRFTISRDNAKNSLYLQMNSLRAEDTAVYYCARGGRLVWSPDYWGQGTLVTVSS
VL: DIVMTQSPDSLAVSLGERATINCKSSQSLLHSGNQKNYLTWYQQKPGQPPKLLIYWASTRESGVPDRFTGSGSGTDFTLTISSLQAEDVAVYYCQNDYSYPFTFGSGTKLEIK
Kd [1]: 2.29 nM
koff [1]: 0.00017 s⁻¹
kon [1]: 74400 M⁻¹ s⁻¹

B2: mAb C H1_L1.140 (in the context of PD-1-targeted IL-15/Rα-Fc fusion) (Fc fusion, part only; not given: IL-15/Rα-Fc chain, constant regions, not shown: another chain or arm of the molecule; a dimerising Fc or GST; small tags and cut ends)
VH: B1 VH with L32F
VL: B1 VL with K36Y, S99T
Kd [1]: 1.62 nM
koff [1]: 0.000122 s⁻¹
kon [1]: 74800 M⁻¹ s⁻¹
fold improvement in KD over wild-type [2]: 36 fold

B3: mAb C H1.132_L1.140 (in the context of PD-1-targeted IL-15/Rα-Fc fusion) (Fc fusion, part only; not given: IL-15/Rα-Fc chain, constant regions, not shown: another chain or arm of the molecule; a dimerising Fc or GST)
VH: B1 VH with L32F, R101W
VL: B1 VL with K36Y, S99T
Kd [1]: 0.543 nM
koff [1]: 7.88e-05 s⁻¹
kon [1]: 145000 M⁻¹ s⁻¹
fold improvement in KD over wild-type [2]: 100 fold

B4: mAb C H1.175_L1.140 (in the context of PD-1-targeted IL-15/Rα-Fc fusion) (Fc fusion, part only; not given: IL-15/Rα-Fc chain, constant regions, not shown: another chain or arm of the molecule; a dimerising Fc or GST)
VH: B1 VH with S53G, R101W
VL: B1 VL with K36Y, S99T
Kd [1]: 0.624 nM
koff [1]: 7.88e-05 s⁻¹
kon [1]: 126000 M⁻¹ s⁻¹
fold improvement in KD over wild-type [2]: 100 fold

B5: 1C11-based mAb (antibody, from another filing, V domains shown)
VH: QIQLVQSGPELKKPGETVKISCRASGYTFTHYGMNWVKQAPGKGLKWMGWINTYTGEPTYADDFKGRFAFSLETSASTAYLQINNLKNEDTATYFCARDYYGSSPYWGQGTTLTVSS
VL: DVLMTQTPLSLPVSLGDQASISCRSSQSIVHSNGNTYLEWYLQKPGQSPKLLIYKVSNRFSGVPDRFSGSGSGTDFTLKISRVEAEDLGVYYCFQGSHVPNTFGGGTKLEIKR
normalized BLI-response [3]: 0.621
normalized BLI-response [4]: 0.966
normalized BLI-response [5]: 0.253
normalized BLI-response [6]: 0.29
normalized BLI-response [7]: 0.405
normalized BLI-response [8]: 0.0987
normalized BLI-response [9]: 1
